This data set relates to T1, C[C@@H]1O[C@@H](OC[C@H]2O[C@@H](Oc3c(-c4ccc(O)c(O)c4)oc4cc(O)cc(O)c4c3=O)[C@H](O)[C@@H](O)[C@@H]2O)[C@H](O)[C@H](O)[C@H]1O.
T1 construct: N-terminal His tag, pET28a in E. coli BL21(DE3), Ni-NTA; forward coding primer starts ATGGCCGACGACTATGGC (MADDYG)
As to the kind of experiment: purified protein. Type of data set: biochemical, Carthamus tinctorius. The settings on record: range of rutin concentrations; no redox partner or NADPH stated.

In general, Km refers to the substrate concentration at which the rate is half of its maximum. With “CtCYP82G24 (Carthamus tinctorius var. tinctorius)”, the Km came to 5.37 ± 0.123 mM.

The values above are taken from article PMC6826380, “Overexpression of a Novel Cytochrome P450 Promotes Flavonoid Biosynthesis and Osmotic Stress Tolerance in Transgenic Arabidopsis” (Genes, 2019).
